The target in assay [1] is T1, human calcitonin receptor (human, UniProt P30988 25-474).
T1 construct: whole, on cells; Membranes of BHK cells stably transfected with the human calcitonin receptor (Assay VII); also called hCTR; hCT
T1 sequence (looked up): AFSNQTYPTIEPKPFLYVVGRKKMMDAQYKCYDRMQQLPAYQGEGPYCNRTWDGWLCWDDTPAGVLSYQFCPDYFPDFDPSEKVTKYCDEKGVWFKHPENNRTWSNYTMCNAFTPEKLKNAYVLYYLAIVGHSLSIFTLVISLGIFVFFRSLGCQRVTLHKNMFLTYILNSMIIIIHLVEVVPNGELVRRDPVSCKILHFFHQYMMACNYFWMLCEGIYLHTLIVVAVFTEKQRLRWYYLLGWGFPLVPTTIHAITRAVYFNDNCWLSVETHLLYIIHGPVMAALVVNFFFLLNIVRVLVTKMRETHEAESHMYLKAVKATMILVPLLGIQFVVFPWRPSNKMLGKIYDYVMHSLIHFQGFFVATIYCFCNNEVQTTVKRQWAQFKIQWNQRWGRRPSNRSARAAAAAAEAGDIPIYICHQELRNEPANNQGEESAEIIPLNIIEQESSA
The assay can be described thus: SPA competition against 125I-calcitonin, membranes of BHK cells with human calcitonin receptor (Assay VII). Put shortly:
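BHK hCTR membranes 35 ng/μL + SPA beads 0.05 mg/well; buffer 50 mM Hepes pH 7.4, 1 mM CaCl2, 5 mM MgCl₂, 0.1% OA, 0.02% Tween20. 120 min, 25° C., shaking. Scintillation count; IC50 by one-site binding competition.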

Assay [2] concerns the target T1, human calcitonin receptor. The assay can be described thus: ratio of IC50 at hCTR over IC50 at hAmylin-R (SPA competition assays). An outline of the steps:
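Competition binding by SPA uses membrane preparations (35 ng/μL final) in pH 7.4 Hepes buffer with 1 mM CaCl2 and 5 mM MgCl₂. Incubation lasts 120 min at 25° C, and IC₅₀ comes from one-site fitting.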

The target of assay [3] is T2, human amylin receptor (amylin 3(a) receptor: human calcitonin receptor with RAMP-3) (human, UniProt P30988 25-474; O60896 24-148, limits assumed).
T2 construct: whole, on cells; Whole cells in the luciferase assay (Assay II a); also called hAmylin-R; hAmylinR
T2 sequence (looked up) 1: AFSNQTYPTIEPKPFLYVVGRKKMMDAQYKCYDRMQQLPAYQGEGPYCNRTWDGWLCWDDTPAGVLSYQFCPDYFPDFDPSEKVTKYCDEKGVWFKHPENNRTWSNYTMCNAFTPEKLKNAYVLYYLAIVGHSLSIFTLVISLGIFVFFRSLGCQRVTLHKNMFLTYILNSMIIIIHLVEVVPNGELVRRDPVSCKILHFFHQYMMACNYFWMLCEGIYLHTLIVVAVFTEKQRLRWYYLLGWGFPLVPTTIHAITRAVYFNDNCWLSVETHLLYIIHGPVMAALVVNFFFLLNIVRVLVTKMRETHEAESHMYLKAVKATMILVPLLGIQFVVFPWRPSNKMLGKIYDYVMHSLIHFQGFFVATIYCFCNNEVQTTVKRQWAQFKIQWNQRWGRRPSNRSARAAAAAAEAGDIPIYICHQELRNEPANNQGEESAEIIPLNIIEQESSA
T2 sequence (looked up) 2: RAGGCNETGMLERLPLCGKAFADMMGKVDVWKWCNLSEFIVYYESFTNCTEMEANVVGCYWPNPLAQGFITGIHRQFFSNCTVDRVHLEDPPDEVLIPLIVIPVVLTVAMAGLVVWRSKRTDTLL
Put plainly: SPA competition binding on membranes of BHK cells with human calcitonin receptor + RAMP-3; displacement of 125I-rat amylin (Assay V). Here is the method: The binding assay was performed using scintillation proximity assay (SPA) beads (RPNQ0001) from PerkinElmer and cell membranes from the Amylin 3(a)/CRE-luc cells (as described in Assay (II)) were used. Membranes were prepared in the following way; the cells were rinsed with PBS and incubated with Versene for approximately 5 min before harvesting. The cells were flushed with PBS and the cell-suspension was centrifuged for 5 min at 1000 rpm. Cells were homogenized (ultrathurrax) in a buffer containing 20 mM Na-HEPES and 10 mM EDTA (pH 7.4) and centrifuged at 20.000 rpm for 15 min. The resulting pellet was resuspended, homogenized and centrifuged (20.000 rpm, 15 min) in a buffer containing 20 mM Na-HEPES and 0.1 mM EDTA (pH 7.4, buffer 2). The resulting pellet was resuspended in buffer 2 and protein concentration was measured (BCA protein Assay, Pierce). The homogenate was kept cold during the whole procedure. The membranes were kept at −80° C. until use. The assay was performed in a 384 well Optiplate (PerkinElmer) in a total volume of 40 ul. Membranes were mixed with SPA beads. Final concentration of membranes 35 ng/μL final and SPA beads was 0.05 mg/well. Test-compounds were dissolved in DMSO and further diluted in assay buffer (50 mM Hepes, pH 7.4, 1 mM CaCl2, 5 mM MgCl₂, 0.1% OA and 0.02% Tween20). […] The final mixture was incubated with shaking at 400 rpm for 120 min at 25° C. prior to centrifugation (1500 rpm, 10 min). Samples were analyzed on TopCounter™ (Packard). The IC₅₀ was calculated using (one site binding competition analysis) GraphPad Prism5 as a measure of receptor affinity.

For assay [4], the target named is T3, human calcitonin receptor (human, UniProt P30988 25-474).
T3 sequence (looked up): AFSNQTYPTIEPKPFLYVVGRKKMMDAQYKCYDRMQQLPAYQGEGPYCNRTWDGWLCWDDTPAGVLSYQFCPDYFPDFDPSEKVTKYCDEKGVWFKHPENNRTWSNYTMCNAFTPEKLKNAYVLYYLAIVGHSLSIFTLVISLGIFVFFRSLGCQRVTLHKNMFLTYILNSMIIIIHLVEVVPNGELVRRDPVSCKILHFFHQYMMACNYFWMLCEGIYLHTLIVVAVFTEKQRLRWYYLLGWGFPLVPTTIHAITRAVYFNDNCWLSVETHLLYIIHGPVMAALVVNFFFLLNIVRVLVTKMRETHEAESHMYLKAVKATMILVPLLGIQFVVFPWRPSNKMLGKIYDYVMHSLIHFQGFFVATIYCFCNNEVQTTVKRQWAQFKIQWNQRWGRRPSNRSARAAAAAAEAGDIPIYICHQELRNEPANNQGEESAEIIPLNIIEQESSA
The assay can be described thus: cell-based or functional assay.

Numbered stars: 1 amine (or outer) side, 2 acyl side, 3 side chain; on linkers, the order of the positions; unused ones are H or OH. Bridge positions count the residues as written; N and C are the ends. Side chains are listed from the residue outwards. Ends that are not written are not given here. * marks the point of attachment. C20 diacid = O=C(O)CCCCCCCCCCCCCCCCCCC(=O)*; γGlu = O=C(O)[C@H](CCC(=O)[*:2])N[*:1]; AEEA = NCCOCCOCC(=O)O

B1: N^ε1-[(4S)-4-carboxy-4-[[(4S)-4-carboxy-4-(19-carboxynonadecanoylamino)butanoyl]amino]butanoyl]-[Ser14,Arg17,Pro21,Pro27,Pro34,Glu35]-h-amylin (peptide)
peptide: K([γGlu-γGlu-C20 diacid])CNTATCATQRLASFLRHSSPNFGAIPSSTNVGPETY-NH2
modifications: disulfide 2-7; N-terminus assumed
SMILES: CC[C@H](C)[C@H](NC(=O)[C@H](C)NC(=O)CNC(=O)[C@H](Cc1ccccc1)NC(=O)[C@H](CC(N)=O)NC(=O)[C@@H]1CCCN1C(=O)[C@H](CO)NC(=O)[C@H](CO)NC(=O)[C@H](Cc1c[nH]cn1)NC(=O)[C@H](CCCNC(=N)N)NC(=O)[C@H](CC(C)C)NC(=O)[C@H](Cc1ccccc1)NC(=O)[C@H](CO)NC(=O)[C@H](C)NC(=O)[C@H](CC(C)C)NC(=O)[C@H](CCCNC(=N)N)NC(=O)[C@H](CCC(N)=O)NC(=O)[C@@H](NC(=O)[C@H](C)NC(=O)[C@@H]1CSSC[C@H](NC(=O)[C@@H](N)CCCCNC(=O)CC[C@H](NC(=O)CC[C@H](NC(=O)CCCCCCCCCCCCCCCCCCC(=O)O)C(=O)O)C(=O)O)C(=O)N[C@@H](CC(N)=O)C(=O)N[C@@H]([C@@H](C)O)C(=O)N[C@@H](C)C(=O)N[C@@H]([C@@H](C)O)C(=O)N1)[C@@H](C)O)C(=O)N1CCC[C@H]1C(=O)N[C@@H](CO)C(=O)N[C@@H](CO)C(=O)N[C@H](C(=O)N[C@@H](CC(N)=O)C(=O)N[C@H](C(=O)NCC(=O)N1CCC[C@H]1C(=O)N[C@@H](CCC(=O)O)C(=O)N[C@H](C(=O)N[C@@H](Cc1ccc(O)cc1)C(N)=O)[C@@H](C)O)C(C)C)[C@@H](C)O
notes: also called compound 120
Consider B1, for which the IC50 (commonly the concentration needed to halve the response being measured) in assay [1] stood at 3.44 nM. The “Ratio hCT/hAmylin binding” value in assay [2] was found to be 45.3.

B2: N^ε1-[2-[2-[2-[[(4S)-4-carboxy-4-(19-carboxynonadecanoylamino)butanoyl]amino]ethoxy]ethoxy]acetyl]-[Arg17,Pro21,Pro27,Arg35]-h-amylin (peptide)
peptide: K([AEEA-γGlu-C20 diacid])CNTATCATQRLANFLRHSSPNFGAIPSSTNVGSRTY-NH2
modifications: disulfide 2-7; N-terminus assumed
SMILES: CC[C@H](C)[C@H](NC(=O)[C@H](C)NC(=O)CNC(=O)[C@H](Cc1ccccc1)NC(=O)[C@H](CC(N)=O)NC(=O)[C@@H]1CCCN1C(=O)[C@H](CO)NC(=O)[C@H](CO)NC(=O)[C@H](Cc1c[nH]cn1)NC(=O)[C@H](CCCNC(=N)N)NC(=O)[C@H](CC(C)C)NC(=O)[C@H](Cc1ccccc1)NC(=O)[C@H](CC(N)=O)NC(=O)[C@H](C)NC(=O)[C@H](CC(C)C)NC(=O)[C@H](CCCNC(=N)N)NC(=O)[C@H](CCC(N)=O)NC(=O)[C@@H](NC(=O)[C@H](C)NC(=O)[C@@H]1CSSC[C@H](NC(=O)[C@@H](N)CCCCNC(=O)COCCOCCNC(=O)CC[C@H](NC(=O)CCCCCCCCCCCCCCCCCCC(=O)O)C(=O)O)C(=O)N[C@@H](CC(N)=O)C(=O)N[C@@H]([C@@H](C)O)C(=O)N[C@@H](C)C(=O)N[C@@H]([C@@H](C)O)C(=O)N1)[C@@H](C)O)C(=O)N1CCC[C@H]1C(=O)N[C@@H](CO)C(=O)N[C@@H](CO)C(=O)N[C@H](C(=O)N[C@@H](CC(N)=O)C(=O)N[C@H](C(=O)NCC(=O)N[C@@H](CO)C(=O)N[C@@H](CCCNC(=N)N)C(=O)N[C@H](C(=O)N[C@@H](Cc1ccc(O)cc1)C(N)=O)[C@@H](C)O)C(C)C)[C@@H](C)O
notes: also called compound 38
For B2, the half-inhibitory concentration (IC50) in assay [3] is 0.249 nM.

B3: N^ε1-[(4S)-4-carboxy-4-[[(4S)-4-carboxy-4-(19-carboxynonadecanoylamino)butanoyl]amino]butanoyl]-[Glu14,Arg17,Pro21,Pro27,Pro34,Glu35]-h-amylin (peptide)
peptide: K([γGlu-γGlu-C20 diacid])CNTATCATQRLAEFLRHSSPNFGAIPSSTNVGPETY-NH2
modifications: disulfide 2-7; N-terminus assumed
SMILES: CC[C@H](C)[C@H](NC(=O)[C@H](C)NC(=O)CNC(=O)[C@H](Cc1ccccc1)NC(=O)[C@H](CC(N)=O)NC(=O)[C@@H]1CCCN1C(=O)[C@H](CO)NC(=O)[C@H](CO)NC(=O)[C@H](Cc1c[nH]cn1)NC(=O)[C@H](CCCNC(=N)N)NC(=O)[C@H](CC(C)C)NC(=O)[C@H](Cc1ccccc1)NC(=O)[C@H](CCC(=O)O)NC(=O)[C@H](C)NC(=O)[C@H](CC(C)C)NC(=O)[C@H](CCCNC(=N)N)NC(=O)[C@H](CCC(N)=O)NC(=O)[C@@H](NC(=O)[C@H](C)NC(=O)[C@@H]1CSSC[C@H](NC(=O)[C@@H](N)CCCCNC(=O)CC[C@H](NC(=O)CC[C@H](NC(=O)CCCCCCCCCCCCCCCCCCC(=O)O)C(=O)O)C(=O)O)C(=O)N[C@@H](CC(N)=O)C(=O)N[C@@H]([C@@H](C)O)C(=O)N[C@@H](C)C(=O)N[C@@H]([C@@H](C)O)C(=O)N1)[C@@H](C)O)C(=O)N1CCC[C@H]1C(=O)N[C@@H](CO)C(=O)N[C@@H](CO)C(=O)N[C@H](C(=O)N[C@@H](CC(N)=O)C(=O)N[C@H](C(=O)NCC(=O)N1CCC[C@H]1C(=O)N[C@@H](CCC(=O)O)C(=O)N[C@H](C(=O)N[C@@H](Cc1ccc(O)cc1)C(N)=O)[C@@H](C)O)C(C)C)[C@@H](C)O
notes: synthetic peptide amide
Consider B3, for which the “hCTR funct. EC50 (pM)” value in assay [4] turned out to be 2360 pM.

B4: N^ε1-[(4S)-4-carboxy-4-(19-carboxynonadecanoylamino)butanoyl]-[Glu14,Arg17,Pro21,Pro27,Pro34,Glu35]-h-amylin (peptide)
peptide: K([γGlu-C20 diacid])CNTATCATQRLAEFLRHSSPNFGAIPSSTNVGPETY-NH2
modifications: disulfide 2-7; N-terminus assumed
SMILES: CC[C@H](C)[C@H](NC(=O)[C@H](C)NC(=O)CNC(=O)[C@H](Cc1ccccc1)NC(=O)[C@H](CC(N)=O)NC(=O)[C@@H]1CCCN1C(=O)[C@H](CO)NC(=O)[C@H](CO)NC(=O)[C@H](Cc1c[nH]cn1)NC(=O)[C@H](CCCNC(=N)N)NC(=O)[C@H](CC(C)C)NC(=O)[C@H](Cc1ccccc1)NC(=O)[C@H](CCC(=O)O)NC(=O)[C@H](C)NC(=O)[C@H](CC(C)C)NC(=O)[C@H](CCCNC(=N)N)NC(=O)[C@H](CCC(N)=O)NC(=O)[C@@H](NC(=O)[C@H](C)NC(=O)[C@@H]1CSSC[C@H](NC(=O)[C@@H](N)CCCCNC(=O)CC[C@H](NC(=O)CCCCCCCCCCCCCCCCCCC(=O)O)C(=O)O)C(=O)N[C@@H](CC(N)=O)C(=O)N[C@@H]([C@@H](C)O)C(=O)N[C@@H](C)C(=O)N[C@@H]([C@@H](C)O)C(=O)N1)[C@@H](C)O)C(=O)N1CCC[C@H]1C(=O)N[C@@H](CO)C(=O)N[C@@H](CO)C(=O)N[C@H](C(=O)N[C@@H](CC(N)=O)C(=O)N[C@H](C(=O)NCC(=O)N1CCC[C@H]1C(=O)N[C@@H](CCC(=O)O)C(=O)N[C@H](C(=O)N[C@@H](Cc1ccc(O)cc1)C(N)=O)[C@@H](C)O)C(C)C)[C@@H](C)O
Consider B4, for which, in assay [1], the 50% inhibitory concentration (IC50) came out at 1.86 nM. Also, the “Ratio hCT/hAmylin binding” value in assay [2] stood at 13.3.

(Values after US20140087995A1 (published 2014).)
